For 21 molecules, α-human koff and α-rat koff results are on record in patent publication US10766952B2, “Methods for reducing migraine frequency in a subject in need thereof” (Beth Israel Deaconess Medical Center, Inc., priority 2017, dated 2020).

Residue numbers refer to the chain shown, from its start. Names may count otherwise.

To fix the notation:
T1: human α-CGRP (Homo sapiens, UniProt P06881)
T1 construct: 1-37 (WT); purchased; host or cells: synthetic peptide
T1 sequence (P06881 83-119 limits assumed): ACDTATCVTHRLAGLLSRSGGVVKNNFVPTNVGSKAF

T2: rat α-CGRP (Rattus norvegicus, UniProt P01256)
T2 construct: rat α (1-37); host or cells: synthetic peptide
T2 sequence (P01256 83-119 limits assumed): T1 sequence (P06881 83-119 limits assumed) with A1S, D3N, N25D, K35E

B1: M46: G1 variant: L1 R28N; L2 G50A,L56T; H2 E54K,A57N,S58E,H61F; HC-FW3 L99T,A100V (antibody, V domains shown)
VH: EVQLVESGGGLVQPGGSLRLSCAASGFTFSNYWISWVRQAPGKGLEWVAEIRSKSDNEATFYAEAVKGRFTISRDNAKNSLYLQMNSLRAEDTAVYYCTVYFDYGLAIQNYWGQGTLVTVSS
VL: EIVLTQSPATLSLSPGERATLSCKASKNVTTYVSWYQQKPGQAPRLLIYAASNRYTGIPARFSGSGSGTDFTLTISSLEPEDFAVYYCSQSYNYPYTFGQGTKLEIK
B2: M47: G1 variant: L1 R28N; L2 G50A,L56T; H2 E54K,A57N,S58G; HC-FW3 L99T,A100V (antibody, V domains shown)
VH: B1 VH with E58G, F61H
VL: B1 VL
B3: M55: G1 variant: L1 R28N,T30A; L2 L56S; H2 E54K,A57N,S58E,E64D; HC-FW3 L99T,A100V (antibody, V domains shown)
VH: B1 VH with F61H, E64D
VL: B1 VL with T30A, A50G, T56S
B4: M51: G1 variant: L1 R28N; L2 L56I; H2 E54K,A57G; HC-FW3 L99T,A100V (antibody, V domains shown)
VH: B1 VH with N57G, E58S, F61H
VL: B1 VL with A50G, T56I
B5: M53: G1 variant: L1 R28N; L2 L56I; H2 E54K,A57N,S58G; HC-FW3 L99T,A100V (antibody, V domains shown)
VH: B1 VH with E58G, F61H
VL: B1 VL with A50G, T56I
B6: M59: G1 variant: L1 R28N,T30D; L2 L56S; H2 E54K,A57N,S58N,H61F; HC-FW3 L99T,A100V (antibody, V domains shown)
VH: B1 VH with E58N
VL: B1 VL with T30D, A50G, T56S
B7: M62: G1 variant: L1 R28N,T30G; L2 A51H,L56T; H2 E54K,A57N,S58E; HC-FW3 L99T,A100V (antibody, V domains shown)
VH: B1 VH with F61H
VL: B1 VL with T30G, A50G, A51H
B8: M49: G1 variant: L1 R28N; L2 G50A,L56T; H2 E54K,A57N,S58Y,H61F; HC-FW3 L99T,A100V (antibody, V domains shown)
VH: B1 VH with E58Y
VL: B1 VL
B9: M65: G1 variant: L1 R28N,T30G; L2 G50A,L56I; H2 E54K,A57C; HC-FW3 L99T,A100V (antibody, V domains shown)
VH: B1 VH with N57C, E58S, F61H
VL: B1 VL with T30G, T56I
B10: M58: G1 variant: L1 R28N,T30D; L2 L56S; H2 E54K,A57N,S58I,H61F; HC-FW3 L99T,A100V (antibody, V domains shown)
VH: B1 VH with E58I
VL: B1 VL with T30D, A50G, T56S
B11: M63: G1 variant: L1 R28N,T30G; L2 G50A; H2 E54K,A57N,S58T; HC-FW3 L99T,A100V (antibody, V domains shown)
VH: B1 VH with E58T, F61H
VL: B1 VL with T30G, T56L
B12: M54: G1 variant: L1 R28N,T30A; L2 G50A; H2 E54K,A57N,S58P; HC-FW3 L99T,A100V (antibody, V domains shown)
VH: B1 VH with E58P, F61H
VL: B1 VL with T30A, T56L
B13: M60: G1 variant: L1 R28N,T30D; L2 L56S; H2 E54K,A57N,S58R,H61F; HC-FW3 L99T,A100V (antibody, V domains shown)
VH: B1 VH with E58R
VL: B1 VL with T30D, A50G, T56S
B14: M56: G1 variant: L1 R28N,T30D; L2 L56S; H2 E54K,A57N,H61F; HC-FW3 L99T,A100V (antibody, V domains shown)
VH: B1 VH with E58S
VL: B1 VL with T30D, A50G, T56S
B15: M48: G1 variant: L1 R28N; L2 G50A,L56T; H2 E54K,A57N,S58L; HC-FW3 L99T,A100V (antibody, V domains shown)
VH: B1 VH with E58L, F61H
VL: B1 VL
B16: M52: G1 variant: L1 R28N; L2 L56I; H2 E54K,A57N,S58A; HC-FW3 L99T,A100V (antibody, V domains shown)
VH: B1 VH with E58A, F61H
VL: B1 VL with A50G, T56I
B17: M57: G1 variant: L1 R28N,T30D; L2 L56S; H2 E54K,A57N,S58E; HC-FW3 L99T,A100V (antibody, V domains shown)
VH: B1 VH with F61H
VL: B1 VL with T30D, A50G, T56S
B18: M50: G1 variant: L1 R28N; L2 G50A,L56T; H2 E54K,A57R; HC-FW3 L99T,A100V (antibody, V domains shown)
VH: B1 VH with N57R, E58S, F61H
VL: B1 VL
B19: M66: G1 variant: L1 R28N,T30G; L2 L56I; H2 E54K,A57E; HC-FW3 L99T,A100V (antibody, V domains shown)
VH: B1 VH with N57E, E58S, F61H
VL: B1 VL with T30G, A50G, T56I
B20: M61: G1 variant: L1 R28N,T30G; L2 A51H; H2 E54Q,A57N,H61F; HC-FW3 L99T,A100V (antibody, V domains shown)
VH: B1 VH with K54Q, E58S
VL: B1 VL with T30G, A50G, A51H, T56L
B21: M64: G1 variant: L1 R28N,T30G; L2 G50A; H2 E54K,A57N,S58V; HC-FW3 L99T,A100V (antibody, V domains shown)
VH: B1 VH with E58V, F61H
VL: B1 VL with T30G, T56L

One test deals with T1, human α-CGRP. Nature of the test: Biacore affinity of antibody G1 Fab and variants to human α-CGRP. Format: binding. Particulars: 37° C., Fab, screening mode unless underlined. The protocol: (§1) Biacore assay for affinity determination. […] All Biacore assays were conducted in HBS-EP running buffer (10 mM HEPES pH 7.4, 150 mM NaCl, 3 mM EDTA, 0.005% v/v polysorbate P20). CGRP surfaces were prepared by diluting the N-biotinylated CGRP to a concentration of less than 0.001 mg/mL into HBS-EP buffer and injecting it across the SA sensor chip using variable contact times. Low capacity surfaces, corresponding to capture levels <50 response units (RU) were used for high-resolution kinetic studies, whereas high capacity surfaces (about 800 RU of captured CGRP) were used for concentration studies, screening, and solution affinity determinations. […] Samples were typically injected for lminute at 100 μL/min and dissociation times of at least 10 minutes were allowed. After each binding cycle, surfaces were regenerated with 25 mM NaOH in 25% v/v ethanol, which was tolerated over hundreds of cycles. An entire titration series (typically generated in duplicate) was fit globally to a 1:1 Langmuir binding model using the BlAevaluation program. This returned a unique pair of association and dissociation kinetic rate constants (respectively, kon and koff) for each binding interaction, whose ratio gave the equilibrium dissociation constant (KD=koff/[…]).
(§2) High-resolution analysis of binding interactions with extremely slow offrates. […] The protocol described above was used with the following modifications. The association rate constant (kon) was determined by injecting a 2-fold titration series (in duplicate) spanning 550 nM-1 nM for 30 seconds at 100 μL/min and allowing only a 30 second dissociation phase. The dissociation rate constant (koff) was determined by injecting three concentrations (high, medium, and low) of the same titration series in duplicate for 30 seconds and allowing a 2-hour dissociation phase. The affinity (KD) of each interaction was obtained by combining the kon and koff values obtained in both types of experiments, as shown in Table 4.
(§3) The binding affinities of Fab fragments were determined by Biacore by flowing them across CGRPs on a SA chip.
A general note: SPR reads the build-up and loss of mass on a sensor chip optically.
The molecule B1 showed a α-human koff of 0.000539 s⁻¹.
On the same count and under the same terms, next, B2: 0.000332 s⁻¹; B3: 0.000478 s⁻¹; B4: 0.000131 s⁻¹.
B5 had a α-human koff of 0.000374 s⁻¹.
On the same count and under the same terms, next, B6: 0.000524 s⁻¹; B7: 0.000557 s⁻¹.
Still for that read-out and setting: next, B8: 0.000595 s⁻¹; B9: 0.000803 s⁻¹; B10: 0.00195 s⁻¹.
The same measure, in the same setting: then B11, with 0.0015 s⁻¹; and B12, with 0.00179 s⁻¹; and B13, with 0.000911 s⁻¹.
In the case of B14, the α-human koff was 0.000479 s⁻¹.
The same measure, in the same setting: next, B15: 0.000842 s⁻¹; B16: 0.000281 s⁻¹.
The same measure, in the same setting: next, B17: 0.000322 s⁻¹; B18: 0.000406 s⁻¹.
On the same count and under the same terms, next, B19: 0.00052 s⁻¹.
As to B20, the α-human koff came out at 0.000459 s⁻¹.
The same measure, in the same setting: then B21, with 0.00132 s⁻¹.

The target of a further test is T2, rat α-CGRP. Nature of the test: Biacore affinity of antibody G1 Fab and variants to rat α-CGRP. Particulars: 37° C., Fab, screening mode unless underlined. Format: binding. The method, then: as §1, §2, §3
B1 registered a α-rat koff of 0.00294 s⁻¹.
Consider B2, for which the α-rat koff came out at 0.00823 s⁻¹.
Still for that read-out and setting: next, B3: 0.00585 s⁻¹.
On the same count and under the same terms, then B4, with 0.00118 s⁻¹; and B5, with 0.00191 s⁻¹.
Same read-out and setting: then B6, with 0.0123 s⁻¹; and B7, with 0.00575 s⁻¹; and B8, with 0.0148 s⁻¹.
As to B9, the α-rat koff came to 0.00407 s⁻¹.
Same read-out and setting: next, B10: “No binding”; B11: 0.00265 s⁻¹; B12: 0.00216 s⁻¹.
Same read-out and setting: then B13, with 0.0272 s⁻¹; and B14, with 0.00935 s⁻¹.
On the same count and under the same terms, next, B15: 0.0343 s⁻¹.
Turning to B16, the α-rat koff stood at 0.00229 s⁻¹.
On the same count and under the same terms, next, B17: 0.0104 s⁻¹; B18: 0.0053 s⁻¹.
Same read-out and setting: then B19, with 0.00511 s⁻¹; and B20, with 0.00521 s⁻¹.
Turning to B21, the α-rat koff came out at 0.0234 s⁻¹.
